Data published in article PMC6982183.

Biological target: human Hsp60 G190W mutant (human) (UniProt P10809)
Assay: SEC; Superdex 200 Increase 10/300 GL, 50 mM Tris-HCl (pH 7.8 at 25 °C), 2 mM DTT, 2 mM EDTA, 0.5 mg sample, 0.75 mL/min; size from calibration with molecular weight standards; before and after agitation

human Hsp60 G190W mutant (from UniProt P10809 53-573) (natural protein)
stoichiometry N: 14
